# According to doi:10.1101/2022.07.02.498517:
# Biological target: human ATP synthase complex (human (endogenous in HEK293T))
# Experiment: native gel or EMSA
substance,measurement,value
human ATP synthase complex,stoichiometry N,2
